Consider 8 molecules from patent US20250270315A1 (ELPISCIENCE SUZHOU BIOPHARMA, published 2025).

Substitutions are numbered along the chain they refer to.

The labels stand for the following.
B1: 071 (antibody, V domains shown)
VH: QIQLVQSGPELKKPGETVKISCKASGYTFTTYGMSWVKQAPGKGLKWMVWINTYSGVPTYADDFQGRFAFSLETSASTSYLQINNLRNEDTATYFCARDPHYYGTSPAWFAYWGQGTLVTVSA
VL: DIVMTQSQKFMSTTIGDRVIITCKASQIVGIAVAWYQQKPGQSPKLLIYSASNRFTGVPDRFTGSGSGTDFTLTISNMQSEDLADYFCQQYSTYPFTFGSGTKLEIK
notes: Mouse monoclonal hybridoma antibody; also called antibody 071; hybridoma antibody 071
B2: 042 (antibody, V domains shown)
VH: QIQLVQSGPELKKPGETVKISCRASGYTFTTYGMSWVKQAPGKGLRWMGWINTYSGVSTCADDFKGRFAFSLETSATTAYLQIHNLTNEDTATYFCARDPHSYGNSPAWFPYWGQGTLVTVSA
VL: B1 VL with G16R, I20S, I28N, A32S, P40S, F55Y, T93S, F96L, E105A
notes: Mouse monoclonal hybridoma antibody; also called antibody 042; hybridoma antibody 042
B3: 073 (antibody, V domains shown)
VH: B1 VH with Q65K, R87K, T105S, A111V
VL: B1 VL with I20S, K24E, F55Y, D85N, T93A, I106V
notes: Mouse monoclonal hybridoma antibody; also called antibody 073; hybridoma antibody 073
B4: 059 (antibody, V domains shown)
VH: QVQLQQSGPELVKPGASVKMSCKASGYTFSEYVLSWVKQRTGQGLEWIGEIYPGTITTYYNEKFKGKATLTADKSSNTAYIQLTSLTSEDSAVYFCGRFYDYDGGWFAYWGQGTLLTVSA
VL: ENVLTQSPEKMAVSLGQKVTMTCSASSSVSSSDLHWYQQKSGASPKPLIHGTSNLASGVPARFSGSGSGTSYSLTISSVEAEDAATYYCQQWSGYPWTFGGGTNLEIK
notes: Mouse monoclonal hybridoma antibody; also called antibody 059; hybridoma antibody 059
B5: 015 (antibody, V domains shown)
VH: EVQLQQSGVEVVQPGASVKLSCTASGFNIEAYYMHWVKQRTEQGLEWIGRIDPEDGESKYAPKFQGKATMTADTSSSTAYLQLSSLTSDDTAVYYCVRGSYEYWGQGTTLTVSS
VL: QIVLTQSPAIMSASPGEKVTLTCSASSSVSSSYLYWYQQKPGSSPKLWIYSTSNLASGVPPRFSGSGSGTSYSLTISSMQAEDAASYFCYQWSSYPYTFGGGTKLEIK
notes: Mouse monoclonal hybridoma antibody; also called antibody 015; hybridoma antibody 015
B6: 025 (antibody, V domains shown)
VH: EVQLQQSGAELVKPGASVKLSCTASGFNIKDYYMHWVKQRTEQGLEWIGRIDPEDGETKYAPKFQGKATITADTSSNTAYLQLSSLTSEDTAVYYCDRGLAYWGQGTLVTVSA
VL: B5 VL with P61A, Q80E, Y90H
notes: Mouse monoclonal hybridoma antibody; also called antibody 025; hybridoma antibody 025
B7: HEFLB (antibody, V domains shown)
VH: EVQLVQSGAEVKKPGESLRISCKASGYSFTSYWVHWVRQMPGKGLEWMGNIDPSDSDTHYSPSFQGHVTLSVDKSISTAYLQLSSLKASDTAMYYCVRGGTGTLAYFAYWGQGTLVTVSS
VL: DVVMTQSPLSLPVTLGQPASISCRSSQSLVHSYGNTYLYWFQQRPGQSPRLLIYRVSNRFSGVPDRFSGSGSGTDFTLKISRVEAEDVGVYYCFQGTHVPYTFGGGTKVEIK
B8: 005 (antibody, V domains shown)
VH: EVKLVESGGGLVQPGGSLSLSCAASGFTFTDYYMSWVRQPPGKALEWLGFIKNEANGYTTESSASVKGRFTISRDNSQSILYLQMNALRAEDSATYYCARYDYYGSNYNWYFDAWGTGTTVTVSS
VL: DIVMTQSQKFMSPSVGDRVSITCKASQNVRTAVAWYQQKPGQSPKVLIHLASKRHTGVPDRFTGSGSGTDFTLTISNVQSEDLADYFCLQHWIHPLTFGAGTKLELK
notes: Mouse monoclonal hybridoma antibody purified on Protein A; also called antibody 005; hybridoma antibody 005

T4 sequence (P78324 31-504): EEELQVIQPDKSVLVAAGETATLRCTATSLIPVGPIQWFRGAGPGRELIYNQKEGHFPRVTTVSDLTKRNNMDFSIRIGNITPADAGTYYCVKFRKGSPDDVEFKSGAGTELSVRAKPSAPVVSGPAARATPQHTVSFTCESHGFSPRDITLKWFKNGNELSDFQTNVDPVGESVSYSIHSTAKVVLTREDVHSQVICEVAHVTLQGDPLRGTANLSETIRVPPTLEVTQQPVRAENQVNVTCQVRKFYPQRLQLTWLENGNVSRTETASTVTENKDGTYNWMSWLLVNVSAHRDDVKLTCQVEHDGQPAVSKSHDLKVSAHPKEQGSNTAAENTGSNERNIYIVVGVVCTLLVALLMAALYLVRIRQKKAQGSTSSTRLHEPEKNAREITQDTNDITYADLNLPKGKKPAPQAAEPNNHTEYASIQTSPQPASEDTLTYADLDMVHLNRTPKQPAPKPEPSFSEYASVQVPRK

For one experiment, the target named is T1, human SIRPα v1 ECD recombinant protein (tag not given) (human, UniProt P78324 31-373).
T1 construct: extracellular domain; also called biotin labeled soluble human SIRPα v1 ECD recombinant protein; ELISA microplate coated human SIRPα v1 ECD
T1 sequence (P78324 31-373): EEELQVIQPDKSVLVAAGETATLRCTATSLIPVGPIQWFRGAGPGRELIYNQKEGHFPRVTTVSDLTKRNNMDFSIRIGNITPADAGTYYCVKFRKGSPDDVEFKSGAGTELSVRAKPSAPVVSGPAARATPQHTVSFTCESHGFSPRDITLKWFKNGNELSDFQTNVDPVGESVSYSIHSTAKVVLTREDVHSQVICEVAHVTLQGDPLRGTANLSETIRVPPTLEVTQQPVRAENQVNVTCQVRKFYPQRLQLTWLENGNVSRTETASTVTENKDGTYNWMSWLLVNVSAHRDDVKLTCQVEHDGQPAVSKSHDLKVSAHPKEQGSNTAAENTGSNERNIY
Put plainly: competitive ELISA, biotin human SIRPα v1 ECD on coated human CD47 ECD. Here is the method:
Competitive ELISA assay was used to determine whether the purified hybridoma antibodies can block CD47 and SIRPα interaction. Briefly, antibody and biotin labeled soluble human SIRPα v1 ECD recombinant protein were co-incubated with ELISA microplate coated human CD47 ECD recombinant protein. After washing, HRP labeled streptavidin (HRP-SA, Sigma) was added and incubated at 37° C. for 1 hour. Then, 100 μl/well of TMB solution (Biotechnology) was added. After incubation for 15 minutes at room temperature, the reaction was stopped by the addition of 50 μl of 1N HCl. OD 450 nm was read. The blocking ratios were determined by blockade of biotin labeled human SIRPα v1 ECD recombinant protein binding to ELISA microplate coated human CD47 ECD recombinant protein. Other than 005, all antibodies as tested can block human CD47 and human SIRPα v1 interaction.
For orientation: In an ELISA, binding on a coated surface is turned into a signal by an enzyme label.
As to B1, the concentration for half-maximal inhibition (IC50) (as a rule, the concentration that inhibits the measured activity by half) turned out to be 0.17 nM.
On the same count and under the same terms, as for B2, the figure is 0.14 nM; as for B3, 0.16 nM; as for B4, 0.12 nM.
Still for that read-out and setting: under B5 stands 0.3 nM; under B6, 0.15 nM; under B7, 0.5 nM.

For a further experiment, the target named is T2, Fc tagged human SIRPα v1 ECD recombinant protein (human, UniProt P78324 31-370).
T2 construct: range 1-370; also called hFc tagged human SIRPα v1 ECD; not shown: human IgG Fc (hFc) tag
T2 sequence (P78324 31-370 limits assumed): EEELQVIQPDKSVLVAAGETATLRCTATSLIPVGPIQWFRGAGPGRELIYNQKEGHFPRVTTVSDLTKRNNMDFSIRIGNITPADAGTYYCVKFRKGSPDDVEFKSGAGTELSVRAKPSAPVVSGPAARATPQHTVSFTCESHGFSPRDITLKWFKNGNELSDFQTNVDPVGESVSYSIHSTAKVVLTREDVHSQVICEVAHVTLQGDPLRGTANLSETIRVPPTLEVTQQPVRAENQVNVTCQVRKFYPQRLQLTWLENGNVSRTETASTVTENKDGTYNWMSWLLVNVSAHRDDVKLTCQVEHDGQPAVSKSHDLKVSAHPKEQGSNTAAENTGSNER
Put plainly: ELISA, coated Fc tagged human SIRPα v1 ECD. Here is the method: (§1) Binding specificity of the purified hybridoma antibodies against human SIRPα variants was detected by ELISA assay using recombinant proteins of Fc tagged human SIRPα v1 ECD and human SIRPα v2 ECD. Briefly the antibodies were incubated with ELISA microplate coated antigens at 37° C. for 1 hour. After washing, horseradish peroxidase (HRP) labeled anti-mouse IgG 2nd Ab (Sigma) was added and incubated at 37° C. for 1 hour. Then, 100 μl/well of TMB solution (Biotechnology) was added. After incubation for 15 minutes at room temperature, the reaction was stopped by the addition of 50 ul of 1N HCl. OD 450 nm was read and EC₅₀ was calculated using GraphPad Prism9.0. Other than HEFLB, all antibodies as tested bind to both human SIRPα v1 and human SIRPα v2. HEFLB can only bind to human SIRPα v1 but not human SIRPα v2.
Regarding B1, the EC50 (commonly the midpoint of the concentration-response curve) is 0.03 nM.
The same measure, in the same setting: as for B2, the figure is 0.03 nM; as for B3, 0.03 nM.
Turning to B8, the half-maximal effective concentration (EC50) was determined as 0.13 nM.
The same measure, in the same setting: under B4 stands 0.03 nM.
For the molecule B5, the EC50 is 0.1 nM.
The same measure, in the same setting: under B6 stands 0.04 nM; under B7, 0.17 nM.

Another experiment concerns the target T3, Fc tagged human SIRPα v2 ECD recombinant protein (human).
T3 construct: range 1-369; also called hFc tagged human SIRPα v2 ECD
Put plainly: ELISA, coated Fc tagged human SIRPα v2 ECD. Here is the method: as §1
Regarding B1, the EC50 is 0.02 nM.
Still for that read-out and setting: under B2 stands 0.03 nM.
Consider B3, for which the EC50 amounted to 0.03 nM.
On the same count and under the same terms, under B8 stands 0.12 nM.
Same read-out and setting: under B4 stands 0.1 nM.
As to B5, the concentration for a half-maximal effect (EC50) stood at 0.15 nM.
With B6, the concentration for a half-maximal effect (EC50) was determined as 0.06 nM.

In a further experiment the target is full length human SIRPα v1 with a small beta-gal fragment (ED) fused to its C-terminal, expressed in K562 … (human, UniProt P78324 31-504). Briefly: cell-based or functional assay.
Sequence of full length human SIRPα v1 with a small beta-gal fragment (ED) fused to its C-terminal, expressed in K562 … (P78324 31-504): as the sequence (P78324 31-504) above
B1: the “SHP-1 recruitment (% blocking), Test I” value amounted to 77.2% and the “SHP-1 recruitment (% blocking), Test II” value was 72.6%.
As to B2, the “SHP-1 recruitment (% blocking), Test I” value came to 84.8% and the “SHP-1 recruitment (% blocking), Test II” value was 76.1%.
Taken in the same sequence, the figures for B3 were 76.9% and 75.9%.
The matching figures for B8: 71% and 82.7%.
The matching figures for B4: 77.5% and 80.2%.
On to B5, for which the “SHP-1 recruitment (% blocking), Test I” value was 83.6% and the “SHP-1 recruitment (% blocking), Test II” value came to 89.6%.
On to B6, for which the “SHP-1 recruitment (% blocking), Test I” value was determined as 83.9% and the “SHP-1 recruitment (% blocking), Test II” value came to 91.2%.
For the molecule B7, the “SHP-1 recruitment (% blocking), Test I” value was found to be 46.8% and the “SHP-1 recruitment (% blocking), Test II” value was 50.3%.

The next experiment has as its target T4, full length human SIRPα v1 stably expressed on CHOK1 or 293F cells (human, UniProt P78324 31-504).
T4 construct: whole, on cells; also called CHOK1-human SIRPα v1; CHOK1-hSIRPα v1
Briefly: FACS, CHOK1-human SIRPα v1 cells. Here is the method:
(§2) Species cross reactivity of the purified hybridoma antibodies against human, cyno and mouse SIRPα was determined by FACS assay using CHOK1 cells stably expressing human SIRPα v1, CHOK 1-cyno SIRPα and C57BL/6 mouse SIRPα. Briefly the antibodies were incubated with 2×10⁵ target cells at 4° C. for 1 hour. After washing, fluorescence labeled anti-mouse IgG 2nd antibody (Life Technologies) was added and incubated at 4° C. for 1 hour. Geometric median fluorescence intensity was detected and EC₅₀ was calculated using GraphPad Prism9.0. Other than HEFLB, all antibodies as tested can bind to cyno SIRPα. None of tested antibodies can bind to C57BL/6 mouse SIRPα.
On the technique in general: In flow cytometry, cells or beads pass a laser one at a time.
As to B1, a half-maximal effect (EC50) was put at 0.2 nM.
Still for that read-out and setting: under B2 stands 0.2 nM; under B3, 0.2 nM; under B8, 1.8 nM.
Molecule B4 displayed an EC50 of 0.1 nM.
In turn, B5 displayed an EC50 of 1 nM.
On the same count and under the same terms, under B6 stands 0.9 nM; under B7, 11.2 nM.

The target in a further experiment is T5, C57BL/6 mouse SIRPα stably expressed on CHOK1 cells (C57BL/6 mouse, UniProt P97797 32-513).
T5 construct: whole, on cells; also called CHOK1-C57BL/6 mouse SIRPα
T5 sequence (looked up): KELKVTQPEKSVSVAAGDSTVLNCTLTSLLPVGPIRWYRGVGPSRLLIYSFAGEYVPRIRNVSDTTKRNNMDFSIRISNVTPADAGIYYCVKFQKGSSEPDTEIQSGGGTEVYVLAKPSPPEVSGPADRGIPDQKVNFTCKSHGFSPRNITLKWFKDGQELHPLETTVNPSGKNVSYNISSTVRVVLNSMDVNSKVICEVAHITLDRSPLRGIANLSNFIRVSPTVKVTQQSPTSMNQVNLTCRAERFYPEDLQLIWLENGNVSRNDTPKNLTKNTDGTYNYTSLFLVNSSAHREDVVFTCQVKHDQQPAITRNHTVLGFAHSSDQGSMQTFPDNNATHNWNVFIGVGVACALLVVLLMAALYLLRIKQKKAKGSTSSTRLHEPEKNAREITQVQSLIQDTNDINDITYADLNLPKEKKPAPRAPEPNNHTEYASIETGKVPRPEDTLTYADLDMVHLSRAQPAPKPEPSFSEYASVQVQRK
Briefly: FACS, CHOK1-C57BL/6 mouse SIRPα cells, MFI at 100 nM. Here is the method:
as §2
Turning to B1, the binding result is reported as “no binding (tested: 100 nM)”.
The same measure, in the same setting: as for B2, the entry is “no binding (tested: 100 nM)”; as for B3, “no binding (tested: 100 nM)”; as for B8, “no binding (tested: 100 nM)”.
Turning to B4, the binding result was “no binding (tested: 100 nM)”.
On the same count and under the same terms, under B5 stands “no binding (tested: 100 nM)”; under B6, “no binding (tested: 100 nM)”; under B7, “no binding (tested: 100 nM)”.

For the next experiment, the target named is T4, full length human SIRPα v1 stably …. Briefly: competitive FACS, mFc-CD47 ECD on CHOK1-human SIRPα v1 cells. Here is the method: Competitive FACS assay was also set up to further compare the blocking activity of the humanized antibodies and reference antibodies. Briefly antibody and mFc tagged human CD47 ECD recombinant protein were co-incubated with CHOK1 cells stably expressing human SIRPα v1 (FIG. 16A) or human SIRPα v2 (FIG. 16B). After washing, dye labeled anti-mouse Fc 2nd antibody (Sigma) was added and incubated at 37° C. for 1 hour. Fluorescence intensity was detected. Blocking ratio was determined by blockade of human CD47 ECD recombinant protein binding to SIRPα expressed CHOK1 cells. […] In particular, HEFLB doesn't work at all for human SIRPα v2.
B7: the half-inhibitory concentration (IC50) came to 0.94 nM and the “TOP blocking (%)” value worked out at 97.6%.
